# Test results published in the RNAGym collection of RNA variant scans (doi:10.7554/elife.80360).
# B1: CPEB3 Ribozyme (parent)
# chain: GGGGGCCACAGCAGAAGCGUUCACGUCGCGGCCCCUGUCAGAUUCUGGUGAAUCUGCGAAUUCUGCUGU
# Variants of: B1
# Assay: self-cleavage, relative activity (ratio to wild type); higher = more cleavage; co-transcriptional
row,Variant,self-cleavage
1,G5U U38G,0.0473
2,G5U U38A,0.235
3,C7A C9A,0.97
4,C6G U36C,0.184
5,C7A A8C,0.769
6,C6U C7U,0.86
7,C6A G30C,0.209
8,G5U G65C,0.205
9,C7G G14A,0.0844
10,C6G A52U,0.254
11,C7A C22A,0.0549
12,C7A C22U,0.139
13,C7A C29A,0.0674
14,C6A C45A,0.523
15,C6A G41U,0.225
16,C6A G41C,0.192
17,C6U U43G,0.815
18,C6U U43C,0.902
19,C7G G11U,0.175
20,C7G G11C,0.157
21,C6A C33A,0.127
22,C7A C32A,0.165
23,C7G C18A,0.0277
24,C6A C34A,0.153

row,Variant,self-cleavage
1,C6A C34G,0.144
2,C6G C7G,0.0901
3,C6G C7A,0.0493
4,G5U U53A,0.116
5,G5U U53C,0.0878
6,G5U G58C,0.2
7,G5U G58U,0.37
8,G5U G58A,0.172
9,C7A A52G,0.515
10,C6U A52G,0.997
11,C6U C18G,0.0786
12,C6U C18U,0.727
13,C7A G47A,0.612
14,C7A G47U,0.637
15,C7A G47C,0.593
16,C6A U55G,0.2
17,C6A U55A,0.396
18,G5U G31U,0.0958
19,G5U U69A,0.503
20,G5U U69C,0.749
21,C6U G11A,0.861
22,C6U A42G,0.951
23,C6U G14U,0.616
24,C6U G14C,0.458

row,Variant,self-cleavage
1,C6A C9U,0.94
2,C7G G41A,0.131
3,C7G G41C,0.121
4,C6A C7G,0.0736
5,C6A C7U,0.115
6,C7G U26G,0.233
7,C7G U26A,0.103
8,G5U U43C,0.133
9,G5U U43A,0.111
10,C6U C54U,1.03
11,C6G G50C,0.205
12,G5U U21G,0.0935
13,C7G A42U,0.303
14,C7G C24A,0.0945
15,C7A A40G,0.416
16,C6G C22U,0.106
17,C6G C22A,0.0965
18,C6G C22G,0.0649
19,C7G A13C,0.285
20,C6U U20C,0.144
21,C6U U20A,0.115
22,C7G C22G,0.0908
23,C7G C22A,0.104
24,C7G G68C,0.815

row,Variant,self-cleavage
1,C6G U55A,0.26
2,C6G U55G,0.144
3,C6G U55C,0.284
4,C6G A8G,0.358
5,C7A A51U,0.402
6,C6U G48U,1
7,C7A C57G,0.179
8,C6U U44G,1.01
9,C6U U26G,0.91
10,C6A U62A,0.175
11,C6A U62G,0.211
12,C7A C45A,0.485
13,C7A C45U,0.566
14,C7A C12U,0.592
15,C7G A52G,0.38
16,G5U G37A,0.11
17,C7G C12A,0.0557
18,C7G C12U,0.383
19,C7G C12G,0.223
20,C7G G30C,1.01
21,C7G G30A,0.791
22,C6U U21A,0.997
23,C7G G47U,0.636
24,C7G G47C,0.604

row,Variant,self-cleavage
1,C6U U49A,1
2,C6U U49G,0.956
3,C6G U53G,0.136
4,C6A C63U,0.505
5,C6A C63G,0.205
6,C7G U49C,0.491
7,C7G U49A,0.444
8,C7A U67G,0.858
9,C7A U67A,0.884
10,C6A C54A,0.282
11,C6A C54G,0.246
12,C6G G37U,0.0713
13,C6A G56U,0.44
14,C6A G56A,0.423
15,C6A G11C,0.29
16,C7A G11C,0.305
17,C6G G31C,0.93
18,C7G U43C,0.231
19,C7A A59C,0.239
20,C7G G19C,0.106
21,C6G A10C,0.284
22,C6G U61A,0.128
23,C6G U61G,0.209
24,C6G U43G,0.126

row,Variant,self-cleavage
1,C6G U43A,0.172
2,C6A U36G,0.138
3,C6A U36A,0.128
4,C6G A59U,0.152
5,C6U C34G,0.188
6,C6G A13C,0.163
7,C6G A13U,0.123
8,G5U G41A,0.12
9,C6U A23G,1.03
10,G5U U36C,0.21
11,C7G G25A,0.107
12,C7A U46A,0.6
13,C7A U69C,1
14,C7G G37A,0.153
15,C7G G37C,0.118
16,C7G G37U,0.179
17,C6U C32A,0.177
18,C7A C18G,0.159
19,C7A C18U,0.224
20,C7A U26A,0.176
21,C6A G58C,0.567
22,C7A U64C,0.336
23,C6G C34A,0.0671
24,C7A U44A,0.447

row,Variant,self-cleavage
1,C6A U20G,0.161
2,C6A U61A,0.217
3,C7G U46G,0.455
4,C7G G56U,0.177
5,C6U A10G,0.908
6,C6G G30U,0.045
7,C6U G65A,0.849
8,C7A U53A,0.321
9,C7A U53C,0.274
10,C7A A10U,0.912
11,C6U A40G,0.999
12,C6U U67C,1.02
13,C6U U67A,0.995
14,C6G C66G,0.311
15,C6A G19U,0.131
16,G5U G48A,0.39
17,G5U U26C,0.155
18,C7G A59C,0.148
19,C7G A59U,0.167
20,G5U G30A,0.0886
21,C7A C54G,0.101
22,C6G G48A,0.493
23,C7A U62G,0.29
